{"source": "patent US20130189255A1", "about": "“FUSIONS AND CONJUGATES OF INSULINOTROPIC AGENTS” (GLAXO GROUP LIMITED, priority 2008, published 2013)", "key": {"[1]": {"assay": "In solution state by SEC MALLS", "type": "physicochemical", "details": "Superdex 200, 20 mM citrate, 0.1M NaCl", "protocol": "The aim of this experiment was to determine the in solution state of DAT0115, DAT0117 and DAT0120 by SEC MALLS. Samples were purified and dialysed into appropriate buffer (PBS) and filtered after dialysis, concentration was determined and adjusted to 1 mg/ml. BSA and HSA were purchased from Sigma and used without further purification. Shimadzu LC-20AD Prominence HPLC system with an autosampler (SIL-20A) and SPD-20A Prominence UV/Vis detector was connected to Wyatt Mini Dawn Treos (MALLS, multi-angle laser light scattering detector) and Wyatt Optilab rEX DRI (differential refractive index) detector. The detectors were connected in the following order—LS—UV—RI. Both RI and LS instruments operated at a wavelength of 488 nm. […] The traces are then analysed using ASTRA software, and the signals are normalised aligned and corrected for band broadening following manufacturer's instructions. […] The dilution that takes place on the column is about 10 fold, so the concentration at which in-solution state is determined is 100 ug/ml, or about 8 uM dAb. […] 16, 1093-1099 (1948)]: The calculations were performed automatically by ASTRA software, resulting in a plot with molar mass determined for eath of the slices [Astra manual]. […]"}, "[2]": {"details": "mouse, in vivo, 1 mg/kg", "protocol": "This was followed by ion exchange chromotography on a Resource S column using a 0-1M salt gradient in 20 mM acetate pH5.0. Fractions containing the desired protein were then combined and buffer exchanged into 100 mM NaCl, 20 mM citrate pH6.2. Protein was filter sterilised, buffer exchanged and endotoxin removed ant tested prior to use in vivo. […] At predose, 0.25, 0.5, 1, 4, 7, 12, 24, 36, 48 and 60 hours after dosing for the iv doses and predose, 0.5, 1, 4, 7, 12, 24, 36, 48 and 60 hours after dosing for the sc doses blood samples were collected by terminal bleed and plasma prepared. Plasma samples were frozen and later defrosted for analysis of DAT0115, DAT0116 or DAT0117 levels as appropriate by solid phase extraction and LC/MS/MS to detect the presence of a fragment of the protein (from the exendin-4 section of the protein). Calculated plasma levels were then used to fit pharmacokinetic parameters using WinNonLin software. Half life after subcutaneous and intravenous administration and bioavailability is outlined in the table below. It was concluded from the results (see table 7 below) that all three compounds show desirable pharmacokinetic parameters in a mouse model of type II diabetes."}, "CSA": {"molecular_target": "CSA (Macaca fascicularis, UniProt A2V9Z4)", "sequence (A2V9Z4 25-608)": "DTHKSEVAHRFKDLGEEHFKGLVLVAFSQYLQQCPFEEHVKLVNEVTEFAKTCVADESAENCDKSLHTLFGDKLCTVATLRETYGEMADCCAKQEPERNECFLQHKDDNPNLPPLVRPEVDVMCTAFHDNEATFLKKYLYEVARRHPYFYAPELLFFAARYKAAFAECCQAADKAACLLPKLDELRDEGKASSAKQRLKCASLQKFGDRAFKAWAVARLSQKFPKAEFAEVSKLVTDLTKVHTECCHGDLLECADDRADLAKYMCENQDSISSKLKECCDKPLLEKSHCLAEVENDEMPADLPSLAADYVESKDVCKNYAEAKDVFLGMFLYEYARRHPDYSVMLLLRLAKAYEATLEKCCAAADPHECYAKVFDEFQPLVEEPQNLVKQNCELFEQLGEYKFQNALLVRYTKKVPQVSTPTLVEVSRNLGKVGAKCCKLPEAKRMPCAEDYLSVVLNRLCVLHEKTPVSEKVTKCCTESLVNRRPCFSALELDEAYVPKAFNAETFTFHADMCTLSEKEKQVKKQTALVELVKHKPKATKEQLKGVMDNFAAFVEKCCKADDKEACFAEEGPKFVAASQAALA", "assay": "Surface plasmon resonance (Biacore, streptavidin chip with biotinylated serum albumin), CSA", "type": "binding, cynomolgus monkey", "details": "Biacore SA chip, HBS-EP buffer; read-out: Affinity (KD) to CSA", "protocol": "The analysis was performed using a streptavidin chip (SA) coated with biotinylated serum albumin. 200-1000 resonance units (RUs) of each serum albumin was immobilised on the chip. Flow cell 1 was uncoated, flow cell 2 was coated with HSA, flow cell 3 was coated with RSA and flow cell 4 was coated with CSA. A range of concentrations of fusion was prepared (in the range 15.6 nM to 2 μM by dilution into BIACORE HBS-EP buffer (0.01M HEPES, pH7.4, 0.15M NaCl, 3 mM EDTA, 0.005% surfactant P20) and flowed across the BIACORE chip.\nAffinity (KD) was calculated from the BIACORE traces by fitting on-rate and off-rate curves to traces generated by concentrations of dAb in the region of the KD."}, "human GLP-1 receptor": {"molecular_target": "T1, human GLP-1 receptor (Homo sapiens, UniProt P43220)", "T1 construct": "expressed in transfected cells; host or cells: CHO K1 (CHO 6CRE GLP1R)", "T1 sequence (P43220 24-463)": "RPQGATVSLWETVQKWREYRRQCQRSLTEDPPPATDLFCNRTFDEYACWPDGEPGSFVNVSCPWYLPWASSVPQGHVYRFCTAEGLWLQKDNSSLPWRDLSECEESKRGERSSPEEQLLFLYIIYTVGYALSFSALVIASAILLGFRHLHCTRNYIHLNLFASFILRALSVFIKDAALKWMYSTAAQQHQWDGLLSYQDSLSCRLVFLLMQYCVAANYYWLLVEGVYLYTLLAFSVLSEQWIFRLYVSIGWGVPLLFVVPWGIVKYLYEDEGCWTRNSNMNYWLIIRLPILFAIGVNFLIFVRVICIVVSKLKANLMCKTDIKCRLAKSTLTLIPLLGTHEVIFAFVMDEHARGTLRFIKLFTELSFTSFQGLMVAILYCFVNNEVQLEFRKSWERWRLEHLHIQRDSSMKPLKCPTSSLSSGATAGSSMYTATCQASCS", "assay": "GLP-1 receptor binding assay (GLP-1R BA), CHO 6CRE GLP1R luciferase reporter cells", "type": "cell-based", "protocol": "Fusions were buffer exchanged into 100 mM […], 20 mM citrate pH 6.2. […] Suspension culture was maintained for 24 hours. Cells were then diluted into 15 mM HEPES buffer (obtainable from Sigma), containing 2 mM L glutamine (2.5×10^5 cells/ml) and dispensed into 384-well plates containing 10 ul/well of the compound to be assayed. After the addition of assay control, plates were returned to the incubator for 3 h at 37° C. and 5% CO2. After the incubation, steady glo luciferase substrate (obtainable from Promega) was added to the wells as described in the kit and the plates sealed with self-adhesive plate seals (Weber Marking Systems Inc. Cat. No. 607780). Plates were placed in the reader (Viewlux, Perkin Elmer) and pre-incubated for 5 minutes prior to reading the […] and plotting of results. Compound was assayed at a range of concentrations in the presence and absence of 10 uM albumin, allowing a dose response curve to be fitted with and without the albumin."}}, "note": "“Also recorded” adds a separate entry of the source. Where two headings read alike, the source gives them in different places.", "data": [{"substance": "Exendin 4 (G4S linker)3 DOM7h-14 dAb fusion [DAT0115]", "values": [{"measurement": "in-solution state (self association)", "setting": "[1]; pH6.2", "result": "eluted in a single peak; also recorded: significantly less (and possibly no) self association"}, {"measurement": "Mw determined across the peak (SEC MALLS)", "setting": "[1]; pH6.2, 0.5 ml/min, expected monomer 16.9 kDa", "result": 17.4, "unit": "kDa"}, {"measurement": "Bioavailability", "setting": "[2]", "result": 65, "unit": "%"}, {"measurement": "Half-life after intravenous administration", "setting": "[2]; iv", "result": 13.8}, {"measurement": "Half-life after subcutaneous administration", "setting": "[2]; sc", "result": 18.6}, {"measurement": "Kd", "setting": "CSA", "result": 2000, "unit": "nM"}, {"measurement": "EC50", "setting": "human GLP-1 receptor; read-out: GLP-1R BA (10 uM albumin) EC50 (pM) n = 2, presence of 10 uM albumin", "result": 35, "unit": "pM"}, {"measurement": "EC50", "setting": "human GLP-1 receptor; read-out: GLP-1R BA EC50 (pM) n = 3, absence of albumin", "result": 8.9, "unit": "pM"}]}]}
